Assay results reported in US20250206792.

T1: Bovine Beta-casein (SEQ ID NO: 3)
T1 chain: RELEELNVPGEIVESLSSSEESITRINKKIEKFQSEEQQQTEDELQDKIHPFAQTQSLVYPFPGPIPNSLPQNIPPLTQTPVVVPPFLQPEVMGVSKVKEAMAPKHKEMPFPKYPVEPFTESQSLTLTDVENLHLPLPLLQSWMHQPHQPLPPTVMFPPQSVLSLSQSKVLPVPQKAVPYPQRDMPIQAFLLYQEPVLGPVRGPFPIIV

T2: Bovine Alpha-s1-casein (SEQ ID NO: 1)
T2 chain: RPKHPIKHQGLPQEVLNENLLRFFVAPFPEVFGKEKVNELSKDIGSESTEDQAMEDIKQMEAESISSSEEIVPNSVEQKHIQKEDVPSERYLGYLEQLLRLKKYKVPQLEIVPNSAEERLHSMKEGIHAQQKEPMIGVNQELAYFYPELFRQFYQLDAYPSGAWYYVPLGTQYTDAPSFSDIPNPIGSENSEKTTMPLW


Experiments:
[1] = biological target: T1, Bovine Beta-casein (SEQ ID NO: 3)
[2] = biological target: T2, Bovine Alpha-s1-casein (SEQ ID NO: 1)

Protein	number of phosphorylated sites similar to native bovine phosphorylation sites, MS [1]	number of sites phosphorylated, in vitro kinase reaction, MS [1]	phosphorylation at *S30 (native site), MS grade, in vitro kinase reaction [1]	phosphorylation at T39, MS grade, in vitro kinase reaction [1]	number of phosphorylated sites similar to native bovine phosphorylation sites, MS [2]	number of sites phosphorylated, in vitro kinase reaction, MS [2]	phosphorylation at *S56 (native site), MS grade, in vitro kinase reaction [2]	phosphorylation at *S130 (native site), MS grade, in vitro kinase reaction [2]	phosphorylation at S103, MS grade, in vitro kinase reaction [2]	phosphorylation at S137, MS grade, in vitro kinase reaction [2]	phosphorylation at Y109, MS grade, in vitro kinase reaction [2]	phosphorylation at Y159, MS grade, in vitro kinase reaction [2]	number of phosphorylated sites similar to native phosphorylation sites, MS [1]	phosphorylation at *S32 (native site), MS grade, in vitro kinase reaction [1]	phosphorylation at *S50 (native site), MS grade, in vitro kinase reaction [1]	number of phosphorylated sites similar to native phosphorylation sites, MS [2]	phosphorylation at *S61 (native site), MS grade, in vitro kinase reaction [2]	phosphorylation at *S63 (native site), MS grade, in vitro kinase reaction [2]	phosphorylation at *S79 (native site), MS grade, in vitro kinase reaction [2]	phosphorylation at *S81 (native site), MS grade, in vitro kinase reaction [2]	also measured
PrkC (Bacillus subtilis) (SEQ ID NO: 8) (protein) MSGPVPSRARVYTDVNTHRPREYWDYESHVVEWGNQDDYQLVRKLGRGKYSEVFEAINITNNEKVVVKILKPVKKKKIKREIKILENLRGGPNIITLADIVKDPVSRTPALVFEHVNNTDFKQLYQTLTDYDIRFYMYEILKALDYCHSMGIMHRDVKPHNVMIDHEHRKLRLIDWGLAEFYHPGQEYNVRVASRYFKGPELLVDYQMYDYSLDMWSLGCMLASMIFRKEPFFHGHDNYDQLVRIAKVLGTEDLYDYIDKYNIELDPRFNDILGRHSRKRWERFVHSENQHLVSPEALDFLDKLLRYDHQSRLTAREAMEHPYFYTVVKDQARMGSSSMPGGSTPVSSANMMSGISSVPTPSPLGPLAGSPVIAAANPLGMPVPAAAGAQ	1 sites	PKNB and PrkC phosphorylated 2 sites in β-casein each	+	++	2 sites	PKNB and PrkC phosphorylated 6 sites in αs1-casein each	+	+	+	+	+	+	–	–	–	–	–	–	–	–	–
YabT (GenBank: SPU13583.1) (SEQ ID NO: 5) (protein) MLNWTPKLQSLSTPFAKLSTAAITPTGPAIREATLQFEKYAQEGACWQMMNDALTSLACSLKPGTTIKGKWNGNTYTLRKQLGKGANGIVYLAETSDGHVALKVSDDSLSITSEVNVLKSFSKAQSVTMGPSFFDTDDAYIPSANTKVSFYAMEYIKGPLLLKYVSDKGAEWIPVLMIQLLSSLSVLHQQGWIFGDLKPDNLIVTGPPARIRCIDVGGTTKEGRAIKEYTEFYDRGYWGYGTRKAEPSYDLFAVAMIMINSVHKKEFKKTNQPKEQLRSLIEGNPLLQKYKKALFSALNGDYQSADEMKKDMLDAGQKAAQRKQPIKASPQPATRQRQQKPRQGKITKTRYTPKQKPAKSGGLFETTLIVISVLALYFAYIIFFLI	–	PrkD and YabT phosphorylated 5 sites each	++	++	–	PrkD and YabT phosphorylated 13 and 10 sites, respectively	+++	–	+	+	–	–	with 3 sites showing similarity to native phosphorylation sites	++	++	with 9 and 8 sites showing similarity to native phosphorylation sites	++	++	+++	+++	phosphorylation at T56, MS grade, in vitro kinase reaction [1]: +; phosphorylation at *S82 (native site), MS grade, in vitro kinase reaction [2]: +++; phosphorylation at *S83 (native site), MS grade, in vitro kinase reaction [2]: +++; phosphorylation at *S90 (native site), MS grade, in vitro kinase reaction [2]: ++
PrkD (Bacillus subtilis 168 | BSU_02030) (SEQ ID NO: 7) (protein) MALKLLKKLLFDRPLKNGVILNHQYKIEECLGMGGYGLVYLCTDILAQTPYVLKQLRPTKAKKEKEKVRFQQEIKLLKNIHHPQIPGFIDEFIIDGQAYYVMQFIEGENIEELLFFRKQPFTELMALQLISQLLEIIEYLHDRLIFHSDIRTPNIIINDGRLCLIDFGLAKQLTPEEMEEIKVRKQDDFFDLGETLLFLLYSQYKGKKKKNGTWLEELTLTKEVTLLLKRLLGIEEEYQHTASIREDLNRAIQSVT	–	PrkD and YabT phosphorylated 5 sites each	+	+	–	PrkD and YabT phosphorylated 13 and 10 sites, respectively	++	+++	+	+	–	+	with 3 sites showing similarity to native phosphorylation sites	+	+	with 9 and 8 sites showing similarity to native phosphorylation sites	+	+	+	+	phosphorylation at S337, MS grade, in vitro kinase reaction [1]: +; phosphorylation at *S82 (native site), MS grade, in vitro kinase reaction [2]: +; phosphorylation at *S83 (native site), MS grade, in vitro kinase reaction [2]: +; phosphorylation at *S90 (native site), MS grade, in vitro kinase reaction [2]: +; phosphorylation at Y161, MS grade, in vitro kinase reaction [2]: +
PKNB1_Cgl2751 (Corynebacterium glutamicum) (SEQ ID NO: 9) (protein) MYEVLGVIAHGGMGWIYLANDRNVSGRIVVLKGMMAQSSVQDQGTAEAEREFLADITHPGIVKAYNFIDDPRVPGGFIVMEYVNGPSLKDRCKAQPDGVLRVDLAIGYILELLPAMDYLHQRGVVYNDLKPENVIATEDQVKLIDLGAVTGIGAFGYIYGTKGFQAPEVATHGPSISSDIFTIGRTLAALTMPLPVEDGVLAPGIPSPKNSPLLRRHLSFYRLLQRATADDPQHRFRNVSELRTQLYGVLREILAVRDGKQYPPQHSLFSPQRSTFGTKHLVF	1 sites	PKNB and PrkC phosphorylated 2 sites in β-casein each	+	+++	1 sites	PKNB and PrkC phosphorylated 6 sites in αs1-casein each	–	+	+	+	+	+	–	–	–	–	–	–	–	–	phosphorylation at Y188, MS grade, in vitro kinase reaction [2]: +
